PMC9929470

Assays:
[1] = molecular target: recombinant N2 (neuraminidase subtype 2 head domain of A/Kansas/14/2017 (H3N2) fused to the tetrabrachion tetramerization domain) (not stated | influenza A virus A/Kansas/14/2017 (H3N2)) (UniProt Q54436); assay: SEC
[2] = molecular target: recombinant N2 (neuraminidase subtype 2 head domain of A/Kansas/14/2017 (H3N2) fused to the tetrabrachion tetramerization domain) (not stated | influenza A virus A/Kansas/14/2017 (H3N2)) (UniProt Q54436); assay: SEC-MALS; AdvanceBio SEC 300-Å column connected to a DAWN8 detector, 0.3 ml/min, PBS pH 7.2
[3] = molecular target: recombinant N1 (neuraminidase subtype 1 head domain of A/Brisbane/02/2018 (H1N1) fused to the tetrabrachion tetramerization domain) (not stated | influenza A virus A/Brisbane/02/2018 (H1N1)) (UniProt Q54436); assay: SEC
[4] = molecular target: recombinant N1 (neuraminidase subtype 1 head domain of A/Brisbane/02/2018 (H1N1) fused to the tetrabrachion tetramerization domain) (not stated | influenza A virus A/Brisbane/02/2018 (H1N1)) (UniProt Q54436); assay: SEC-MALS; AdvanceBio SEC 300-Å column connected to a DAWN8 detector, 0.3 ml/min, PBS pH 7.2

| Substance | stoichiometry N [1] | stoichiometry N [2] | stoichiometry N [3] | stoichiometry N [4] |
| --- | --- | --- | --- | --- |
| recombinant N2 (neuraminidase subtype 2 head domain of A/Kansas/14/2017 (H3N2) fused to the tetrabrachion tetramerization domain) (from UniProt Q54436 1238-1286) (enzyme) | 4 | 4 | – | – |
| recombinant N1 (neuraminidase subtype 1 head domain of A/Brisbane/02/2018 (H1N1) fused to the tetrabrachion tetramerization domain) (from UniProt Q54436 1238-1286) (enzyme) | – | – | 4 | 4 |
